Target: T1, full length human DLL4 (human, UniProt Q9NR61 27-685)
T1 construct: whole, on cells; also called native DLL4 expressed in HEK293 cells
Test: FACS competition vs Notch1/Fc, HEK293 cells with human DLL4
Procedure: Further experiments were performed on selected antibodies using HEK293 cells that were stably transfected with either human, mouse or cynomolgus monkey DLL4 using retroviral constructs. In these experiments, anti-DLL4 antibodies (final concentration: 10-0.01 μg/ml) diluted in PBS containing 2% FCS were added to DLL4-expressing HEK 293 cells (50000 cells/well diluted in PBS containing 2% FCS) and incubated for 1 h at 4° C. Subsequently, Alexa-647 labeled human, rat or APC labeled mouse Notch1/Fc (e.g. R&D Systems, catalog #3647-TK-050, 1057-TK-050, 5267-TK-050, respectively) was added at a final concentration of 0.01-0.5 μg/ml and plates were incubated for a further 2 h at 4° C. prior to washing and reading on a FACSCalibur instrument.
The activity of the mutated antibodies was assessed in two ways: firstly, the ability of the antibodies to block the binding of soluble Notch1/Fc to full length human DLL4 stably expressed in HEK293 cells as described in Example 3 was determined and, secondly, the binding of the antibodies to the same cell line used in the receptor-ligand competition studies was determined. For the binding studies, HEK293 cells stably overexpressing human DLL4 were resuspended in PBS containing 2% FCS at a concentration of 50,000 cells/well and incubated with titrations of antibody (final concentrations 0.01-10 μg/ml) for 1 h at 4° C. The cells were then washed and incubated with 0.31 μg/ml anti-human IgG-Fc-FITC (BD Pharmingen, cat#555786) for 30 minutes at 4° C. Bound […] was detected using FACS analysis. Results of these studies are summarized in Table 23, which show the effects of specific mutations to sequences of 9G8 and 2H10 on the ability of the antibodies to compete with Notch1 for binding to human DLL4 or to bind to human DLL4 relative to unmutated antibodies.

T1 sequence (Q9NR61 27-685): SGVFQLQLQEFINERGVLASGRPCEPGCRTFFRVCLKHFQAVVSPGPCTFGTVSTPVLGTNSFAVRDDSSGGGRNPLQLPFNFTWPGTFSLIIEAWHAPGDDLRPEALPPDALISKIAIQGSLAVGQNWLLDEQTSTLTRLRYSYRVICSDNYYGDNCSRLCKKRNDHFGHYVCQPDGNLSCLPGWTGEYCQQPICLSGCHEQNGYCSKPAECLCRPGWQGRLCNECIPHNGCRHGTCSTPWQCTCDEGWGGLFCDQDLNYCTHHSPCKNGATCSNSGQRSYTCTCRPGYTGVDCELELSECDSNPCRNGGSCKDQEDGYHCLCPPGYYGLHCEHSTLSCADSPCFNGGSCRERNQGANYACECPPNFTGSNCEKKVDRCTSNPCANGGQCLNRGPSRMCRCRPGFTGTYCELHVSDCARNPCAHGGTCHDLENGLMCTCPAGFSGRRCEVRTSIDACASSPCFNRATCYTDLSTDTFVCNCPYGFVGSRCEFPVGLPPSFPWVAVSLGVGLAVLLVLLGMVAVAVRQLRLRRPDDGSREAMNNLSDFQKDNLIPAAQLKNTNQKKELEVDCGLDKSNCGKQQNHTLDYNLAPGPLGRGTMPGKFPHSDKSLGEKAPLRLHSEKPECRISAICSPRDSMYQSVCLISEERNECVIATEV

| Binder | IC50 [µg/mL] |
| --- | --- |
| 9G8 IgG2 VH wt/VL C33A (antibody, V domains shown, IgG2) VH: QLQLQESGPGLVKPSETLSLSCTVSGGSISSSSSYWGLIRQPPGKGLEWIGSIYYSGSTYYSPSLKSRVSISVDTSKNQFSLKLSSVTAADTAVYFCARQGYGGHPDVFDIWGQGTMVTVSS VL: SSELTQSPSVSVSPGQTARITCSGDKLGDVYVAWYQQKTGQSPVLVIYEDTKRPSGIPERFSGSNSGNTATLTISGTQVMDEADYYCQAWDSTTAVIFGGGTKLTVL | 0.302 |
| 9G8 IgG2 VH wt/VL C33Y (antibody, V domains shown, IgG2) VH: QLQLQESGPGLVKPSETLSLSCTVSGGSISSSSSYWGLIRQPPGKGLEWIGSIYYSGSTYYSPSLKSRVSISVDTSKNQFSLKLSSVTAADTAVYFCARQGYGGHPDVFDIWGQGTMVTVSS VL: SSELTQSPSVSVSPGQTARITCSGDKLGDVYVYWYQQKTGQSPVLVIYEDTKRPSGIPERFSGSNSGNTATLTISGTQVMDEADYYCQAWDSTTAVIFGGGTKLTVL | 0.32 |
| 9G8 IgG2 VH wt/VL C33R (antibody, V domains shown, IgG2) VH: QLQLQESGPGLVKPSETLSLSCTVSGGSISSSSSYWGLIRQPPGKGLEWIGSIYYSGSTYYSPSLKSRVSISVDTSKNQFSLKLSSVTAADTAVYFCARQGYGGHPDVFDIWGQGTMVTVSS VL: SSELTQSPSVSVSPGQTARITCSGDKLGDVYVRWYQQKTGQSPVLVIYEDTKRPSGIPERFSGSNSGNTATLTISGTQVMDEADYYCQAWDSTTAVIFGGGTKLTVL | 0.201 |
| 9G8 IgG2 VH wt/VL C33G (antibody, V domains shown, IgG2) VH: QLQLQESGPGLVKPSETLSLSCTVSGGSISSSSSYWGLIRQPPGKGLEWIGSIYYSGSTYYSPSLKSRVSISVDTSKNQFSLKLSSVTAADTAVYFCARQGYGGHPDVFDIWGQGTMVTVSS VL: SSELTQSPSVSVSPGQTARITCSGDKLGDVYVGWYQQKTGQSPVLVIYEDTKRPSGIPERFSGSNSGNTATLTISGTQVMDEADYYCQAWDSTTAVIFGGGTKLTVL | 0.358 |
| 9G8 IgG2 VH wt/VL C33D (antibody, V domains shown, IgG2) VH: QLQLQESGPGLVKPSETLSLSCTVSGGSISSSSSYWGLIRQPPGKGLEWIGSIYYSGSTYYSPSLKSRVSISVDTSKNQFSLKLSSVTAADTAVYFCARQGYGGHPDVFDIWGQGTMVTVSS VL: SSELTQSPSVSVSPGQTARITCSGDKLGDVYVDWYQQKTGQSPVLVIYEDTKRPSGIPERFSGSNSGNTATLTISGTQVMDEADYYCQAWDSTTAVIFGGGTKLTVL | 0.345 |
| 2H10 IgG2 VH M93V/VL C33S (antibody, V domains shown, IgG2) VH: QVQLVESGGGVVQPGRSLRLSCAASGFTFSRHGMHWVRQAPGKGLEWVAVVWFDGSNIYYADSVKGRFTISRDNSKNTLYLQMNSLRAEDTAVYYCARDSRIAAADYWGQGTLVTVSS VL: SYELTQPPSVSVSPGQTVSITCSGDKLGDKYVSWYQQKPGQSPVLVIYQESKRPSGIPERFSGSSSGNTATLTISGTQAMDEADYYCQTWDSSLVVFGGGTKLTVL | 0.138 |
| 2H10 IgG2 VH wt/VL C33R (antibody, V domains shown, IgG2) VH: QVQLVESGGGVVQPGRSLRLSCAASGFTFSRHGMHWVRQAPGKGLEWVAVVWFDGSNIYYADSVKGRFTISRDNSKNTLYLQMNSLRAEDTAMYYCARDSRIAAADYWGQGTLVTVSS VL: SYELTQPPSVSVSPGQTVSITCSGDKLGDKYVRWYQQKPGQSPVLVIYQESKRPSGIPERFSGSSSGNTATLTISGTQAMDEADYYCQTWDSSLVVFGGGTKLTVL | 2.97 |
| 2H10 IgG2 VH wt/VL C33D (antibody, V domains shown, IgG2) VH: QVQLVESGGGVVQPGRSLRLSCAASGFTFSRHGMHWVRQAPGKGLEWVAVVWFDGSNIYYADSVKGRFTISRDNSKNTLYLQMNSLRAEDTAMYYCARDSRIAAADYWGQGTLVTVSS VL: SYELTQPPSVSVSPGQTVSITCSGDKLGDKYVDWYQQKPGQSPVLVIYQESKRPSGIPERFSGSSSGNTATLTISGTQAMDEADYYCQTWDSSLVVFGGGTKLTVL | 0.178 |
| 2H10 IgG2 VH wt/VL C33A (antibody, V domains shown, IgG2) VH: QVQLVESGGGVVQPGRSLRLSCAASGFTFSRHGMHWVRQAPGKGLEWVAVVWFDGSNIYYADSVKGRFTISRDNSKNTLYLQMNSLRAEDTAMYYCARDSRIAAADYWGQGTLVTVSS VL: SYELTQPPSVSVSPGQTVSITCSGDKLGDKYVAWYQQKPGQSPVLVIYQESKRPSGIPERFSGSSSGNTATLTISGTQAMDEADYYCQTWDSSLVVFGGGTKLTVL | 0.174 |
| 2H10 IgG2 VH M93V/VL wt (antibody, V domains shown, IgG2) VH: QVQLVESGGGVVQPGRSLRLSCAASGFTFSRHGMHWVRQAPGKGLEWVAVVWFDGSNIYYADSVKGRFTISRDNSKNTLYLQMNSLRAEDTAVYYCARDSRIAAADYWGQGTLVTVSS VL: SYELTQPPSVSVSPGQTVSITCSGDKLGDKYVCWYQQKPGQSPVLVIYQESKRPSGIPERFSGSSSGNTATLTISGTQAMDEADYYCQTWDSSLVVFGGGTKLTVL | 0.264 |
| 2H10 IgG2 VH wt/VL C33G (antibody, V domains shown, IgG2) VH: QVQLVESGGGVVQPGRSLRLSCAASGFTFSRHGMHWVRQAPGKGLEWVAVVWFDGSNIYYADSVKGRFTISRDNSKNTLYLQMNSLRAEDTAMYYCARDSRIAAADYWGQGTLVTVSS VL: SYELTQPPSVSVSPGQTVSITCSGDKLGDKYVGWYQQKPGQSPVLVIYQESKRPSGIPERFSGSSSGNTATLTISGTQAMDEADYYCQTWDSSLVVFGGGTKLTVL | 0.314 |

— US20100196385A1 (AstraZeneca / MedImmune, published 2010)
